Measurements published in patent US9255257B2, “PmST1 mutants for chemoenzymatic synthesis of sialyl lewis X compounds” (THE REGENTS OF THE UNIVERSITY OF CALIFORNIA, priority 2011, dated 2016).
Numbering of substitutions follows the chain as printed. In names and notes the source's numbering stands.

Experiments:
[1] = system: Cc1cc(=O)oc2cc(O[C@@H]3O[C@H](CO)[C@@H](O[C@@H]4O[C@H](CO)[C@H](O)[C@H](O)[C@H]4O)[C@H](O)[C@H]3O)ccc12; assay: α2-3-sialyltransferase activity, LacβMU as acceptor; format: biochemical, Pasteurella multocida; settings: other: apparent, acceptor, CMP-Neu5Ac 1 mM, Tris-HCl pH 8.5, 37° C.
Experimental: (§1) To obtain the apparent kinetic parameters of LacβMU as the acceptor for the α2-3-sialyltransferase activity, the kinetic assays were performed in duplicate in reaction mixtures of 10 μL containing Tris-HCl buffer (100 mM, pH 8.5), a fixed concentration of CMP-Neu5Ac (1 mM), different concentrations of LacβMU (0.2, 0.5, 1.0, 2.0, 5.0, and 9.0 mM) and the mutant proteins (2 μg mL^−1 of E271F, 2 μg mL^−1 of R313Y, and 1.6 μg mL^−1 of E271F/R313Y). All reactions were allowed to proceed at 37° C. for 5 min (E271F), 7 min (R313Y), and 10 min (E271F/R313Y). The apparent kinetic parameters were obtained by fitting the experimental data (the average values of duplicate assay results) into the Michaelis-Menten equation using Grafit 5.0.
(§2) To obtain the apparent kinetic parameters of CMP-Neu5Ac as the donor for the α2-3-sialyltransferase activity, the kinetic assays were performed in duplicate in reaction mixtures of 10 μL containing Tris-HCl buffer (100 mM, pH 8.5), a fixed concentration of LacβMU (1 mM), different concentrations of CMP-Neu5Ac (0.1, 0.2, 0.5, 1.0, 2.0, 5.0, 10.0 and 20.0 mM) and the mutant proteins (2 μg mL^−1 of E271F, 2 μg mL^−1 of R313Y, and 1.6 μg mL^−1 of E271F/R313Y). All reactions were allowed to proceed at 37° C. for 2 min (E271F), 7 min (R313Y), and 5 min (E271F/R313Y). The apparent kinetic parameters were obtained by fitting the experimental data (the average values of duplicate assay results) into the Michaelis-Menten equation using Grafit 5.0.
(§3) All the sialidase and α2-3-sialyltransferase assays were performed in an HPLC system. Reactions were stopped by adding 10 μL of ethanol. After necessary dilutions were performed to adjust the concentrations of the fluorescent-labeled compounds, the samples were then kept on ice until aliquots of 8 μL were injected and analyzed by a Shimadzu LC-6AD system equipped with a membrane on-line degasser, a temperature control unit, and a fluorescence detector (Shimadzu RF-10AXL). A reverse-phase Premier C18 column (250×4.6 mm i.d., 5 μm particle size, Shimadzu) protected with a C18 guard column cartridge was used. The mobile phase was 25% acetonitrile. The fluorescent compounds LacβMU and Neu5Acα2-3LacβMU were detected by excitation at 325 nm and emission at 372 nm.

[2] = system: CC(=O)N[C@H]1[C@H]([C@H](O)[C@H](O)CO)O[C@](OP(=O)(O)OC[C@H]2O[C@@H](n3ccc(N)nc3=O)[C@H](O)[C@@H]2O)(C(=O)O)C[C@@H]1O; assay: as above; format: biochemical, Pasteurella multocida; settings: other: apparent, donor, LacβMU 1 mM, Tris-HCl pH 8.5, 37° C.
Experimental: as §1, §2, §3

[3] = system: CC(=O)N[C@H]1[C@H]([C@H](O)[C@H](O)CO)O[C@@](O[C@H]2[C@@H](O)[C@@H](CO)O[C@@H](O[C@H]3[C@H](O)[C@@H](O)[C@H](Oc4ccc5c(C)cc(=O)oc5c4)O[C@@H]3CO)[C@@H]2O)(C(=O)O)C[C@@H]1O; assay: α2-3-sialidase activity, Neu5Acα2-3LacβMU as substrate; format: biochemical, Pasteurella multocida; settings: other: apparent, MES pH 5.5, 37° C.
Experimental: Site-directed mutagenesis. Site-directed mutagenesis was carried out using the QuikChange multi-site-directed mutagenesis kit from Stratagene according to the manufacturer's protocol. The primers used were 5′-[…] -3′ (SEQ ID NO:32) for E271F and 5′-[…]-3′ (SEQ ID NO:33) for R313Y. The sites of mutations are underlined.
Protein Expression and Purification. The plasmids containing the mutant genes were transformed into E. coli BL21 (DE3). The E. coli cells were cultured in LB-rich media (10 g L^−1 tryptone, 5 g L^−1 yeast extract, and 10 g L^−1 NaCl) supplemented with ampicillin (100 μg mL^−1). Overexpression of the mutant proteins was achieved by adding 0.1 mM of isopropyl-1-thio-β-D-galactopyranoside (IPTG) to the E. coli culture when its OD600 nm reached 0.8. […]
as §3, with “Reactions were stopped by adding 10 μL of ethanol.” left out, “A reverse-phase Premier C18 column (250×4.6 mm i.d., 5 μm particle size, Shimadzu) protected with a C18 guard column cartridge was used. The mobile phase was 25% acetonitrile.” left out

[4] = system: CC(=O)N[C@H]1[C@H]([C@H](O)[C@H](O)CO)O[C@](OP(=O)(O)OC[C@H]2O[C@@H](n3ccc(N)nc3=O)[C@H](O)[C@@H]2O)(C(=O)O)C[C@@H]1O; assay: purified protein, by the assay type; settings: other: apparent
[5] = system: CC(=O)N[C@H]1[C@H](Oc2ccc3c(C)cc(=O)oc3c2)O[C@H](CO)[C@@H](O[C@@H]2O[C@H](CO)[C@H](O)[C@H](O)[C@H]2O)[C@@H]1O[C@@H]1O[C@@H](C)[C@@H](O)[C@@H](O)[C@@H]1O; assay: purified protein, by the assay type; settings: other: apparent; acceptor; WT; 37.0 °C
Experimental: Kinetics of the α2-3-sialyltransferase activity of PmST1 mutants by HPLC analysis. With LacβMU as the acceptor substrate, the reactions were performed in duplicate at 37° C. for 10 min (M144D) or 4 min (M144H) in a reaction mixture (10 μL) containing Tris-HCl (100 mM, pH 8.5), an enzyme (5 μg mL^−1), and different concentrations (0.2, 0.5, 1.0, 2.0, and 5.0 mM) of LacβMU with a fixed concentration (1 mM) of CMP-Neu5Ac or different concentrations (0.2, 0.5, 1.0, 2.0, 5.0, and 10.0 mM) of CMP-Neu5Ac with a fixed concentration (1 mM) of LacβMU. With Le^xβMU as the acceptor substrate, the reactions were carried out in duplicate at 37° C. for 9 min (M144D) or 10 min (M144H) in a reaction mixture (10 μL) containing CAPSO (100 mM, pH 9.5), an enzyme (M144D, 39 μg mL^−1 or M144H, 5 μg mL^−), and various concentrations of Le^xβMU (1.0, 5.0, 10.0, 15.0, 25.0, and 35.0 mM) with a fixed concentration (1 mM) of CMP-Neu5Ac or various concentrations (0.2, 0.5, 1.0, 2.0, 5.0, 10.0, 20.0, and 40.0 mM) of CMP-Neu5Ac with a fixed concentration (1 mM) of Le^xβMU. Reactions were stopped by adding 10 μL of pre-chilled ethanol. The mixtures were incubated on ice for 30 min and centrifuged at 13,000 rpm for 5 min. The supernatants were diluted with 25% acetonitrile and kept on ice until aliquots of 8 μL were injected and analyzed by the Shimadzu LC-6AD system equipped with a membrane on-line degasser, a temperature control unit, and a fluorescence detector (Shimadzu RF-10AXL). A reverse-phase Premier C18 column (250×4.6 mm i.d., 5 μm particle size, Shimadzu) protected with a C18 guard column cartridge was used. The mobile phase was 25% acetonitrile. The fluorophore (MU)-labeled compounds were detected by excitation at 325 nm and emission at 372 nm. The apparent kinetic parameters were obtained by fitting the experimental data (the average values of duplicate assay results) into the Michaelis-Menten equation using Grafit 5.0.

[6] = Apparent kinetics of the α2-3-sialidase activity (HPLC, fluorescent sialoside substrate); format: biochemical; settings: substrate Neu5Acα2-3LacβMU
Experimental: All the sialidase and α2-3-sialyltransferase assays were performed in an HPLC system. Reactions were stopped by adding 10 μL of ethanol. […] The mobile phase was 25% acetonitrile.
Kinetics of the α2-3-sialidase activity of PmST1 mutants.

[7] = Kinetics of the donor (CMP-Neu5Ac) hydrolysis activity by capillary electrophoresis; format: biochemical
Experimental: The reactions were stopped by adding 10 μL of pre-chilled ethanol. The mixtures were incubated on ice for 30 min and centrifuged at 13,000 rpm for 5 min. The supernatants were diluted with borate buffer (25 mM, pH 9.5) and aliquotes of 5 μL each were injected to a Beckman Coulter P/ACE™ MDQ Capillary Electrophoresis system equipped with a capillary (60 cm×75 μm i.d.) and monitored at 254 nm. The apparent kinetic parameters were obtained by fitting the experimental data (the average values of duplicate assay results) into the Michaelis-Menten equation using Grafit 5.0.

[8] = donor hydrolysis, WT, Tris-HCl pH 8.5, 37° C., 15 min
[9] = donor, with Le^xβMU, WT, 37.0 °C

For “Pasteurella multocida PmST1 mutant E271F of SEQ ID NO: 13 (E247F of Δ24PmST1, SEQ ID NO: 7) (Pasteurella multocida; E271F)”, the Km ([1]; E271F) was 0.71 ± 0.12 mM, the Km ([2]; E271F) was 0.18 ± 0.01 mM and the Km ([3]; E271F, 1 min) was 5.7 ± 0.9 mM.

Molecule “Pasteurella multocida PmST1 mutant H311A (Pasteurella multocida; H311A)” has a Km ([4]; donor hydrolysis, H311A, Tris-HCl pH 8.5, 37° C., 20 min) of 1.8 ± 0.2 mM.

“Pasteurella multocida PmST1 double mutant E271F/R313Y of SEQ ID NO: 13 (E247F/R289Y of Δ24PmST1, SEQ ID NO: 11) (Pasteurella multocida; E271F/R313Y)” showed a Km ([1]; E271F/R313Y) of 0.54 ± 0.04 mM and a Km ([2]; E271F/R313Y) of 0.34 ± 0.02 mM.

With “Pasteurella multocida α2-3-sialyltransferase 1 (PmST1), wild type (WT), SEQ ID NO: 13 (Pasteurella multocida)” the Km [5] was 17 ± 2 mM, the kcat [5] was 6.7 ± 0.3 s⁻¹ and the Km [4, 8] was 1.5 ± 0.2 mM. The kcat [4, 8] was 27 ± 1 s⁻¹, the kcat/Km [4, 8] was 18000 M⁻¹ s⁻¹ and the Km [4, 9] was 0.39 ± 0.03 mM. The kcat [4, 9] was 0.55 ± 0.01 s⁻¹.

Work on “Pasteurella multocida PmST1 mutant R313Y of SEQ ID NO: 13 (R289Y of Δ24PmST1, SEQ ID NO: 9) (Pasteurella multocida; R313Y)” yielded a Km ([1]; R313Y) of 0.67 ± 0.05 mM, a Km ([2]; R313Y) of 0.62 ± 0.04 mM and a Km ([3]; R313Y, 25 min) of 51 ± 5 mM.

B1: D141A (protein)
chain: MKNRRLNFKLFFLIIFSLFSTLSWSKTITLYLDPASLPALNQLMDFTQNNEDKTHPRIFGLSRFKIPDNIITQYQNIHFVELKDNRPTEALFTILDQYPGNIELNIHLNIAHSVQLIRPILAYRFKHLDRVSIQQLNLYDAGSMEYVDLEKEENKDISAEIKQAEKQLSHYLLTGKIKFDNPTIARYVWQSAFPVKYHFLSTDYFEKAEFLQPLKEYLAENYQKMDWTAYQQLTPEQQAFYLTLVGFNDEVKQSLEVQQAKFIFTGTTTWEGNTDVREYYAQQQLNLLNHFTQAEGDLFIGDHYKIYFKGHPRGGEINDYILNNAKNITNIPANISFEVLMMTGLLPDKVGGVASSLYFSLPKEKISHIIFTSNKQVKSKEDALNNPYVKVMRRLGIIDESQVIFWDSLKQL
In the case of B1, the “decrease of α2-3-sialidase activity (catalytic efficiency kcat/Km) compared to wild-type PmST1” value (shortened to “decrease of α2-3-sialidase activity”) [6] is reported as “about 7,300 fold” and the “decrease of efficiency of CMP-Neu5Ac (donor) hydrolysis activity compared to WT” value [7] is reported as 1,000 fold.

B2: E271F (protein, listed as Pasteurella multocida)
chain: B1 chain with A141D, E271F
modifications: PmST1 wild-type glycosyltransferase family 80 (GT80), GT80 sialyltransferase, Pm0188Ph
With B2 the “decrease in sialidase Km value compared to wild-type PmST1” value [6] was 4.2 fold, the “decrease in sialidase kcat (turnover number) compared to wild-type PmST1” value [6] was 250 fold and the “decrease of α2-3-sialidase activity” value [6] was “about 59 fold”.

B3: R313Y (protein, listed as Pasteurella multocida)
chain: B1 chain with A141D, R313Y
modifications: PmST1 wild-type glycosyltransferase family 80 (GT80), GT80 sialyltransferase, Pm0188Ph
In the case of B3, the “decrease in sialidase kcat (turnover number) compared to wild-type PmST1” value [6] is reported as 1,278 fold, the “decrease of α2-3-sialidase activity” value [6] is reported as 2,639 fold and the “increase in sialidase Km value compared to wild-type PmST1” value [6] is reported as 2 fold.

B4: H311A (protein)
chain: B1 chain with A141D, H311A
For B4, the “decrease of efficiency of CMP-Neu5Ac (donor) hydrolysis activity compared to WT” value [7] was 16 fold.
